To fix the notation:
B1: Golgi phosphoprotein 3 homolog sauron (Drosophila melanogaster (Fruit fly)), Q9VQ93 (parent)
chain: MNRSDGLVRRSVKPRENGGAEGGLNANTPDDNQDALDNLKDQEDNIDDGDSKETRLTLMEEVLLLGLKDKEGYTSFWNDCISSGLRGCILIELGLRGRVMIEKSGMRRRGLCTRKLILKSDQQTGDVLLDEALKHIKETDPPETVQSWIEYLSGETWNPLKLRYQLKNVRERLAKNLVEKGVLTTEKQNFLLFDMTTHPLSDNVVKCRLVKKIQDSVLSKWVNDPQRMDKRMLALIFLAHASDVIENAFAPLNDDDYEVAMKRVRELLDLDFEAESAKPNANEILWAVFMAFTK
partner: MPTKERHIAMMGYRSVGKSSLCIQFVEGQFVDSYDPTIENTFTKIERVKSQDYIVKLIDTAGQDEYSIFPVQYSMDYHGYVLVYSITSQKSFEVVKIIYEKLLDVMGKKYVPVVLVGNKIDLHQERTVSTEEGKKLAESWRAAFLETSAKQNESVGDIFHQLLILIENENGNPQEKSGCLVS

The variants in the assay derive from B1. Particulars: with rheb_drome Rheb.
Consider K167A;R170L, for which the “effect of a mutation on the interaction” value is recorded as “disrupting interaction strength”.

The values are drawn from IntAct's records for PubMed 36435842.
